Measurements: US20180094062A1 (Hoffmann-La Roche, published 2018)

How the values were obtained:
[1] = target: T1, recombinant Thermus thermophilus SlyD FKBP-Her3 (TtSlyD-FKBP-Her3); assay: SPR, antibody captured
T1 construct: expressed in E. coli, the N-terminal methionine can be present or not; also called thermo SlyD-Her3; T.T.SlyD-Her3
T1 chain: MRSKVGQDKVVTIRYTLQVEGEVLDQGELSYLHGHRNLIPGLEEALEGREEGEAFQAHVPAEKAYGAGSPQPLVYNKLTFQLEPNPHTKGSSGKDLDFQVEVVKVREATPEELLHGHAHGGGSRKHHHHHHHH
Procedure: In all assay the test antibodies were captured. The system was under the control of the software version V1.1. The instrument buffer was HBS-EP (10 mM HEPES (pH 7.4), 150 mM NaCl, 1 mM EDTA, 0.05% (w/v) P20). The system operated at 25° C. 30 μg/ml Rabbit polyclonal antibody (RAM IgG, (Rabbit anti Mouse IgG with Fc gamma specificity) GE Healthcare) in 10 mM sodium acetate buffer (pH 4.5) was immobilized using EDC/NHS chemistry according to the manufacturer's instructions on the spots 1, 2, 4 and 5 in the flow cells 1, 2, 3 and 4. The sensor was saturated using 1M ethanolamine. In each flow cell, referenced signals were calculated using spots 1-2 and spots 5-4, spot 3 served as a blanc control. […] The antibody capture level (CL) in response units was monitored. […] Thereafter, the antibody-antigen complex dissociation signal was recorded for 5 min. […] The recorded signal shortly before the end of the injection of the antigen was denoted as binding late (BL) in response units. The recorded signal shortly before the end of the recording of the dissociation is denoted as stability late (SL) in response units. The dissociation rate constants were determined calculated The antibody-antigen complex stability in minutes was calculated with the following formula: […]. The Molar Ratio was calculated with the formula: MW (antibody)/MW (antigen) *BL (antigen)/CL (antibody). […]

[2] = target: T2, HER3 ECD-HRG complex (Heregulin-activated Her-3 ECD) (human, UniProt P21860 20-643); assay: SPR Biacore 3000, antibody captured, Biacore two-state model, ka1, 25 C; ka1, first step of the two-state fit
T2 construct: receptor-ligand complex made by preincubating HER3 ECD with a five-fold molar excess of Heregulin; also called Heregulin/Her-3 ECD; Heregulin-complexed Her-3 ECD
Procedure: A CM5 series sensor was mounted into the system and was normalized in HBS-ET buffer (10 mM HEPES pH 7.4, 150 mM NaCl, 3 mM EDTA, 0.005% w/v Tween 20) according to the manufacturer's instructions. The sample buffer was the system buffer supplemented with 1 mg/ml CMD (Carboxymethyldextran). The system operated at 25° C. 10000 RU RAM-Fey (relative units of Fey-fragment Rabbit Anti-Mouse IgG/Jackson Laboratories) were immobilized according to the manufacturer's instructions using EDC/NHS chemistry on all flow cells. The sensor was deactivated using 1M ethanolamine.

ratio Ka (Thermus thermophilus SlyD FKBP-Her3)/Ka (HER3-ECD) [1]: ≥ 1.5 ratio
ratio MR (Thermus thermophilus SlyD FKBP-Her3)/MR (HER3-ECD) [1]: ≥ 2 ratio
kon [2]: 45800 M⁻¹ s⁻¹
B1: anti-HER3 antibody M-08-11 (antibody, V domains shown)
VH: QAYLQQSGAELMRPGASVRMSCQASGYTFTSYTIHWLKQTPRQGLEWIGAIYPRNGDFSYNQKFKDKASLTVDTSSSTAYMHLSSLTSEDSAVYFCARTINYGDWFAYWGQGTLVTVSA
VL: DIQMIQSPASLFVSEGETVIITCRASENIYSNLAWYHQKKGKSPQVLVYAAIKLADGVPLRFSGSGSGTQFSLKINSLQSEDFGSYYCQHFWGPPYTFGSGTNLEIK
notes: mouse monoclonal antibody from hybridoma, tested as hybridoma supernatant or as antibody; also called M-011
